Tests used:
[1] = biological target: T1, recombinant human vWF A2 domain (human, UniProt P04275 1498-1665); assay: ELISA, domain coated 50 nM
T1 construct: domain: A2
Method: (§1) ELISA was performed as previously reported1. […] After blocking with 2% BSA solution containing PBS-T, 1 μg/mL of recombinant human VEGF-A121 (PeproTech), recombinant human VEGF-A145 (R & D Systems), or recombinant human VEGF-A165 (PeproTech) was added. Bound VEGF-A was detected with 1 μg/mL of mouse anti-human VEGF-A antibody (clone: 26503, R & D systems). After 60 min of incubation, horseradish peroxidase (HRP) conjugated goat anti-mouse antibody (1:2000 dilution, Dako) was added and incubated for another 60 min. Color development and the absorbance measurement were done as described above.

[2] = biological target: T2, recombinant human vWF A3 domain (human, UniProt P04275 1683-1874); assay: ELISA, domain coated 50 nM
T2 construct: domain: A3
Method: as §1

laminin-521 [3] = biological target: T3, laminin-521 (human, UniProt O15230 36-3695; P55268 33-1798; P11047 34-1609); assay: SPR, laminin-521 immobilised, GF flowed, Langmuir fit
T3 construct: Full-length recombinant human laminin isoform (BioLamina); chains read from the isoform name
Method: (§2) A450 nm represents absorbance at 450 nm. BSA-coated wells served as negative controls (n=4, mean±SEM). Signals greater than 0.1 (grey box) are considered to be significant. […] Experimental curves were fitted with Langmuir binding kinetics.
(§3) The obtained binding curves were fitted with Langmuir binding kinetics to calculate specific dissociation constants (KD) (FIG. 1B).
(§4) SPR analysis was performed as described previously². In brief, measurements were made with a Biacore 3000 SPR system (GE Healthcare). […] VEGF-A165, PDGF-BB, or PlGF-2 was flowed at increasing concentrations in the running buffer at 20 μL/min. The sensor chip was regenerated with 50 mM NaOH for every cycle. Specific bindings of GFs to laminin were calculated by comparison to a non-functionalized channel used as a reference. Experimental results were fitted with Langmuir binding kinetics using BIAevaluation software (GE Healthcare).

laminin-521 [4] = biological target: T3, laminin-521; assay: SPR; laminin-521 immobilised on the chip (~2000 RU), VEGF-A165 flowed at 10-100 nM; Langmuir fit
Method: as §2, §3, §4

human plasma-derived vWF = biological target: T4, human plasma-derived vWF (human, UniProt P04275 764-2813); assay: SPR; plasma-derived vWF immobilised (~2000 RU), VEGF-A165 flowed at 6.25-100 nM; 1:1 Langmuir fit [panel C]
T4 construct: mature; also called plasma-derived purified vWF; von Willebrand factor
Method: A450 nm represents absorbance at 450 nm. Signals from VEGF-A121 served as a baseline, and bovine serum albumin (BSA) served as a negative control (n=4, mean±SD). […] Experimental curves were fitted with (C) 1:1 Langmuir fit model and (D) heterogeneous ligand-parallel reactions binding.
SPR assays were performed as described previously2. In brief, measurements were made with a Biacore X100 SPR system or Biacore 3000 SPR system (GE Healthcare). […] Recombinant human VEGF-A165, VEGF-A121, or PDGF-BB was flowed at increasing concentrations in the running buffer at 30 μL/min. The sensor chip was regenerated with glycine at pH 2 for every cycle.

laminin-111 = biological target: T5, laminin-111 (human, UniProt P25391 18-3075; P07942 22-1786; P11047 34-1609); assay: ELISA; plate coated with 10 µg/mL laminin, 1 µg/mL VEGF-A165 in solution without or with 10 µM heparin, bound GF detected with antibody [panel A]
T5 construct: Full-length recombinant human laminin isoform (BioLamina); Chain composition is read from the isoform name
Method: (§5) FIGS. 2A-C. […] ELISA plates were coated with 10 μg/mL laminin and further incubated with a 1 μg/mL (A) VEGF-A165, (B) PlGF-2, or (C) FGF-2 solution in the absence or presence of excess (10 μM) heparin. Bound GFs were detected using a specific antibody for each GF (n=4, mean±SEM). Statistical analyses were done using the Mann-Whitney U test by comparing the signals with and without heparin. *p<0.05, **p<0.01.
(§6) Because the GFs that bound to laminins have also been previously reported to bind to other ECM glycoproteins through HBDs, it was hypothesized that HBDs of laminins might be responsible for the interactions between GFs and laminin. To address this hypothesis, ELISA assays were repeated for VEGF-A165, PlGF-2 or FGF-2 in the presence of heparin added in excess (10 μM). […] To further confirm this, the inventors tested direct GF binding to the LG domains from human laminin α3, α4 and α5, within which HBDs of laminin were localized.

laminin-211 = biological target: T6, laminin-211 (human, UniProt P24043 23-3122; P07942 22-1786; P11047 34-1609); assay: as above
T6 construct: Full-length recombinant human laminin isoform (BioLamina); chains read from the isoform name
Method: as §5, §6

laminin-411 = biological target: T7, laminin-411 (human, UniProt Q16363 25-1823; P07942 22-1786; P11047 34-1609); assay: as above
T7 construct: Full-length recombinant human laminin isoform (BioLamina); chains read from the isoform name
Method: as §5, §6

laminin-421 = biological target: T8, laminin-421 (human, UniProt Q16363 25-1823; P55268 33-1798; P11047 34-1609); assay: as above
T8 construct: Full-length recombinant human laminin isoform (BioLamina); chains read from the isoform name
Method: as §5, §6

T8 sequence (Q16363 25-1823 limits assumed, chain 1 of 3): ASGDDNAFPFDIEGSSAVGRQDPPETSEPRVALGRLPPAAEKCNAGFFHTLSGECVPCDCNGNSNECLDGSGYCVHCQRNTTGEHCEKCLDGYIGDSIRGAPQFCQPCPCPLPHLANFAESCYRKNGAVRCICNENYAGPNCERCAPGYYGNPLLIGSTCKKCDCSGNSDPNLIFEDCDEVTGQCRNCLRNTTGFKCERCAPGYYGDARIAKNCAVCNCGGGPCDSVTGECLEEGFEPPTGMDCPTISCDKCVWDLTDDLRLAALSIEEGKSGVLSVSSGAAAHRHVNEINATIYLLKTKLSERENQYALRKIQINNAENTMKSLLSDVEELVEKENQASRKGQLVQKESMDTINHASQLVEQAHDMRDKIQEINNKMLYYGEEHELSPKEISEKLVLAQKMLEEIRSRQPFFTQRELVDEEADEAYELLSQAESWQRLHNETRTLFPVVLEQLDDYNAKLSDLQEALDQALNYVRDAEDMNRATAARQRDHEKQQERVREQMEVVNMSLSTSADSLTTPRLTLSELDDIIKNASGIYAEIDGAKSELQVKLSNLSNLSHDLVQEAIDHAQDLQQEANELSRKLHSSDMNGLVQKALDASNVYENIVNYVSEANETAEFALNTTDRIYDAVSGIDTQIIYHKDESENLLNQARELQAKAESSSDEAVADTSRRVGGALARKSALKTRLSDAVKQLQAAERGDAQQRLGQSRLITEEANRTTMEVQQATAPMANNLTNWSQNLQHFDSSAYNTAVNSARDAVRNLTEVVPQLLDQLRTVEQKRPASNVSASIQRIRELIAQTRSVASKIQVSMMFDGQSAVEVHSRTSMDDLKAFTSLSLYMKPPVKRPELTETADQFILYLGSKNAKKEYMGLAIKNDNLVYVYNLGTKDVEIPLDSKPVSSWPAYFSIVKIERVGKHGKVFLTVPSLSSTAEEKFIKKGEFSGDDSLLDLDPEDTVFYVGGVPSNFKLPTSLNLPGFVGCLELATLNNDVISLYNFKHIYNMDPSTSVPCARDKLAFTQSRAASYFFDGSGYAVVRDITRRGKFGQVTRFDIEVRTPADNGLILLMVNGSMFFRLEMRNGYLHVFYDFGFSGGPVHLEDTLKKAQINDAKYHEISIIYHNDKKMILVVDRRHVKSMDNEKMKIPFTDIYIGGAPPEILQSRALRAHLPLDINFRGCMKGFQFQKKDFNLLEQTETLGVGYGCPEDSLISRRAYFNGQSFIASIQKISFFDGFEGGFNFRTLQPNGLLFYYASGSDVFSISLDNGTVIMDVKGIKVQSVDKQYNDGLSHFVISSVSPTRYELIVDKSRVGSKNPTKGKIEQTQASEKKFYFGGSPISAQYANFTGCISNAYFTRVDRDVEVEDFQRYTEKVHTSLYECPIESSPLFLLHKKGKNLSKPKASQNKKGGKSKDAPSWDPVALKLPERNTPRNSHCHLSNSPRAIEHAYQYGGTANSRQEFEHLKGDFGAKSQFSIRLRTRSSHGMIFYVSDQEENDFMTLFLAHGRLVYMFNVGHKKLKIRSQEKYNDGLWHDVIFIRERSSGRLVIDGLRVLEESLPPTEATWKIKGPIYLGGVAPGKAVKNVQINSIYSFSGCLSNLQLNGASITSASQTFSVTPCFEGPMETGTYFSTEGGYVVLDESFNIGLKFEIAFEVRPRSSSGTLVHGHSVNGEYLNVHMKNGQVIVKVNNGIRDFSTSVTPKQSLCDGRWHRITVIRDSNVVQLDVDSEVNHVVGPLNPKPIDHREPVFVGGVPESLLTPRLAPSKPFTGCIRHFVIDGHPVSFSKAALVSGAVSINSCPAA
T8 sequence (P55268 33-1798 limits assumed, chain 2 of 3): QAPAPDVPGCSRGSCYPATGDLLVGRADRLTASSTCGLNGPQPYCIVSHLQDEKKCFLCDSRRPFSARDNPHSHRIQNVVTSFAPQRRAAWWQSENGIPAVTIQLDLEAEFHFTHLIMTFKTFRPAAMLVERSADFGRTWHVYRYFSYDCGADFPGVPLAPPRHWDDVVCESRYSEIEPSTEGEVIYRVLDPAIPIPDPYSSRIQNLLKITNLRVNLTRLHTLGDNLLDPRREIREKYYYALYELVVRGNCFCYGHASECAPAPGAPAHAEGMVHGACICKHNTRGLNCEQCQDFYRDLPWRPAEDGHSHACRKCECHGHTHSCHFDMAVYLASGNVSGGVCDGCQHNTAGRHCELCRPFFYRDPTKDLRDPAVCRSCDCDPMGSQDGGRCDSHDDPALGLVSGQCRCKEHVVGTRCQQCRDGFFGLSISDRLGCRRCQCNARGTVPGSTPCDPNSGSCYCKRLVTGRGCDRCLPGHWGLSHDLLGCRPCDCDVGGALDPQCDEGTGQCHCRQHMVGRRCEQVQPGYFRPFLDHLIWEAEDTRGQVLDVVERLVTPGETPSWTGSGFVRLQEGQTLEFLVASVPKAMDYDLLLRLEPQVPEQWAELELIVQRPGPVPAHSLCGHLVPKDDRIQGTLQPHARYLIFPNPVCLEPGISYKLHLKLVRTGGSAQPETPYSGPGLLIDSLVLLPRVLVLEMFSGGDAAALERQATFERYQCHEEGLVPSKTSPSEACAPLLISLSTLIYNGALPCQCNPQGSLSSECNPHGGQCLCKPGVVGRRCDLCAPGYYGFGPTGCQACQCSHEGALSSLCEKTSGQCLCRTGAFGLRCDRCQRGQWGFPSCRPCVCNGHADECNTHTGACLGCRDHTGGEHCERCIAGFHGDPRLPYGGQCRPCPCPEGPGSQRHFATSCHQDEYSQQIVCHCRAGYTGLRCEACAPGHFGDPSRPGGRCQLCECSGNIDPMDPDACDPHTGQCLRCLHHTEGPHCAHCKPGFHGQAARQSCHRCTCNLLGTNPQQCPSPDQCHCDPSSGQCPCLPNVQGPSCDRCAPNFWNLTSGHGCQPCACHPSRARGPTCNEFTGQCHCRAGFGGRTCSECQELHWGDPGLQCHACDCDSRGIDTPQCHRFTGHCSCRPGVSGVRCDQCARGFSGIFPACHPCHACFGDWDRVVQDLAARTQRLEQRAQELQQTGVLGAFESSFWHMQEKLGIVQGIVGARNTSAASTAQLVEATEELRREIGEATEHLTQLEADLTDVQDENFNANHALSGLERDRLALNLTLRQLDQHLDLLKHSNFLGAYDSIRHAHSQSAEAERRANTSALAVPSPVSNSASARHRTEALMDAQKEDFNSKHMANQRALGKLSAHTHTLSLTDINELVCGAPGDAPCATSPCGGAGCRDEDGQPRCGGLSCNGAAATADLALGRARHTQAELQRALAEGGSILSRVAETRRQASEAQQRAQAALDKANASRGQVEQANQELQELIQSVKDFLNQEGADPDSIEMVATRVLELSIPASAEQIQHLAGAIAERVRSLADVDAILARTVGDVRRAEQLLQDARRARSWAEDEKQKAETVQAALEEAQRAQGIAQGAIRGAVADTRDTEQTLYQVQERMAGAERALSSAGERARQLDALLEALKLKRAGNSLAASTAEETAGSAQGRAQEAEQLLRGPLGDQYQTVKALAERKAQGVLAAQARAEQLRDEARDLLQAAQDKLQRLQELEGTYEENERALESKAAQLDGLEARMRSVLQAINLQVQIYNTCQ
T8 sequence (P11047 34-1609 limits assumed, chain 3 of 3): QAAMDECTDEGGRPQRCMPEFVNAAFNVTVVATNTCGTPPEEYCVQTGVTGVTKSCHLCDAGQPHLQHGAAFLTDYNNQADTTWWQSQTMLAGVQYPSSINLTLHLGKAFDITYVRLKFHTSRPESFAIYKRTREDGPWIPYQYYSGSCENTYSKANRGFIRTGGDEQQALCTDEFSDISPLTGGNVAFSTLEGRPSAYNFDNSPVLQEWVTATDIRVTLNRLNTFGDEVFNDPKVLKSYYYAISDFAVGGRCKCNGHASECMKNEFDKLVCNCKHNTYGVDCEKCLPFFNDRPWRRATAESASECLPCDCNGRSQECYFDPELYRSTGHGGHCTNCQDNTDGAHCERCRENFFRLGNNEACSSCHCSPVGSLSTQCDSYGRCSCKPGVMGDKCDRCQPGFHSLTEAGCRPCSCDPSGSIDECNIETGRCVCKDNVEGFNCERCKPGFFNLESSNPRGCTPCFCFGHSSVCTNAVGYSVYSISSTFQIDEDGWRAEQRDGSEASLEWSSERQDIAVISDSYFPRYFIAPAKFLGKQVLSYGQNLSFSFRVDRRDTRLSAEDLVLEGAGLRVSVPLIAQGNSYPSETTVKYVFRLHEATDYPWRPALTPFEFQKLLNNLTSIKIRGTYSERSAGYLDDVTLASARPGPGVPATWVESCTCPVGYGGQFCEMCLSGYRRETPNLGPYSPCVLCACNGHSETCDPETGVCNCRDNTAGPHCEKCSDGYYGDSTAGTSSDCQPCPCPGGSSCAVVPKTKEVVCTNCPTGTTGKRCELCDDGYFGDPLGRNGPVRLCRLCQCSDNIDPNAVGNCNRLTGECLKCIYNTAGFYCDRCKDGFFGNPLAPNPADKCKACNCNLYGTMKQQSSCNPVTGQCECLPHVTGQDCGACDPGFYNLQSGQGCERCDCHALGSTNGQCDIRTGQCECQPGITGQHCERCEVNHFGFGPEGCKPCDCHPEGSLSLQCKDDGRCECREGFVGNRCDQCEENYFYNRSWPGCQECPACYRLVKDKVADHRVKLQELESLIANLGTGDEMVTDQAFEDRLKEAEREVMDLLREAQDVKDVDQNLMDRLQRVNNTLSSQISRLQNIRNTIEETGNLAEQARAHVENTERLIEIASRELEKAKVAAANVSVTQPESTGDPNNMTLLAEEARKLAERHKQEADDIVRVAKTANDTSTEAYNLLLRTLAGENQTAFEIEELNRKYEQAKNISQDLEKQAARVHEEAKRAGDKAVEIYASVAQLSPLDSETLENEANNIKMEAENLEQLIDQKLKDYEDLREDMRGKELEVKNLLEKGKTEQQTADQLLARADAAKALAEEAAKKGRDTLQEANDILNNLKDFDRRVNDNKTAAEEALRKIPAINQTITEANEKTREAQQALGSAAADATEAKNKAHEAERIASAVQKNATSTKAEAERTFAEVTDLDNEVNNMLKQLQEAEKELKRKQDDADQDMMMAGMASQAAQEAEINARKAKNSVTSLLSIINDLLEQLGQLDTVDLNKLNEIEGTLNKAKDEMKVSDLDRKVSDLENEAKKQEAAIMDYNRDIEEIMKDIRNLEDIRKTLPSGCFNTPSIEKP

binding result [1]: no binding (tested: 1 µg/mL)
binding result [2]: no binding (tested: 1 µg/mL)
Kd (laminin-521 [3]): 5.8 nM
Kd (laminin-521 [4]): 5.78 nM
koff (laminin-521 [4]): 0.00324 s⁻¹
kon (laminin-521 [4]): 561000 M⁻¹ s⁻¹
Kd (human plasma-derived vWF): 27.4 nM
binding result (laminin-111): binds
binding result (laminin-211): binds
binding result (laminin-411): binds
binding result (laminin-421): binds
B1: vascular endothelial growth factor (VEGF)-A165 (ligand, human, UniProt P15692-4 27-191, looked up)
chain: APMAEGGGQNHHEVVKFMDVYQRSYCHPIETLVDIFQEYPDEIEYIFKPSCVPLMRCGGCCNDEGLECVPTEESNITMQIMRIKPHQGQHIGEMSFLQHNKCECRPKKDRARQENPCGPCSERRKHLFVQDPQTCKCSCKNTDSRCKARQLELNERTCRCDKPRR
notes: mature; Purchased in mature form, not glycosylated

From patent US20240092867A1 (UNIVERSITY OF CHICAGO, published 2024)
